Consider 94 variants from the supplement of paper PMC10567573.

B1: VPS39 (parent)
chain: LRLENNHCHIEESEHVLKKAHKYS
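Also: lentivirally expressed fusions sorted by FACS into six bins by GFP to DsRed ratio, PSI derived from sequencing read proportions per bin multiplied by bin number.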

The variants in the data set derive from B1. The experiment in a line: protein stability index of a GFP-peptide fusion (GPS, HEK-293T) (PSI 1-6); higher = more stable. The settings on record: c terminus: a fixed tail appended.
For the variant LRLENNHCHIEESEHVLKDAHKYS, the protein stability index was 2.59. Next, LRLENNHCHIEESEHVLKWAHKYS: 1.34. LRLENNHCHIEESEHVLKNAHKYS: the protein stability index came to 2.39.

For the variant LRLENNHCHIEESEHVLKFAHKYS, the protein stability index is 1.98. Take LRLENNHCHIEESEHVLKQAHKYS: the protein stability index was 2.51. Then LRLENNHCHIEESEHVLKTAHKYS, with 2.2; and LRLENNHCHIEESEHVLKSAHKYS, with 2.1; and LRLENNHCHIEESEHVLKYAHKYS, with 2.67. Then LRLENNHCHIEESEHVLKEAHKYS, with 2.45; and LRLENNHCHIEESEHVLKAAHKYS, with 2.3. As to LRLENNHCHIEESEHVLKPAHKYS, the protein stability index is 2.41. Next, LRLENNHCHIEESEHVLKIAHKYS: 2.01; LRLENNHCHIEESEHVLKRAHKYS: 2.37; LRLENNHCHIEESEHVLKLAHKYS: 1.52. Then LRLENNHCHIEESEHVLKHAHKYS, with 1.91; and LRLENNHCHIEESEHVLKCAHKYS, with 2.24; and LRLENNHCHIEESEHVLKMAHKYS, with 2.52. Turning to LRLENNHCHIEESEHVLKGAHKYS, the protein stability index stood at 2.21. Then LRLENNHCHIEESEHVLKVAHKYS, with 2.4. Then LRLENNHCHISESEHVLKKAHKYS, with 3.04; and LRLENNHCHIYESEHVLKKAHKYS, with 3.06. Then LRLENNHCHIWESEHVLKKAHKYS, with 2.75; and LRLENNHCHITESEHVLKKAHKYS, with 2.49. Take LRLENNHCHIVESEHVLKKAHKYS: the protein stability index came out at 1.97.

As for LRLENNHCHIRESEHVLKKAHKYS, the protein stability index was 3.35. Next, LRLENNHCHIEQSEHVLKKAHKYS: 2.15. Turning to LRLENNHCHIEYSEHVLKKAHKYS, the protein stability index turned out to be 3.21.

For the variant LRLENNHCHIERSEHVLKKAHKYS, the protein stability index is 2.14. Next, LRLENNHCHIELSEHVLKKAHKYS: 3.66. Then LRLENNHCHIEGSEHVLKKAHKYS, with 2.26; and LRLENNHCHIEHSEHVLKKAHKYS, with 2.75. Next, LRLENNHCHIEKSEHVLKKAHKYS: 2.94.

As for LRLENNHCHIESSEHVLKKAHKYS, the protein stability index came to 2.61.

Turning to LRLENNHCHIENSEHVLKKAHKYS, the protein stability index is 2.44. Then LRLENNHCHIEISEHVLKKAHKYS, with 1.96; and LRLENNHCHIEASEHVLKKAHKYS, with 2.19; and LRLENNHCHIETSEHVLKKAHKYS, with 2.01. Regarding LRLENNHCHIEFSEHVLKKAHKYS, the protein stability index amounted to 1.24. Then LRLENNHCHIEPSEHVLKKAHKYS, with 1.93; and LRLENNHCHIEMSEHVLKKAHKYS, with 2.68. Then LRLENNHCHIEVSEHVLKKAHKYS, with 1.35; and LRLENNHCHIEDSEHVLKKAHKYS, with 3.1; and LRLENNHCHIECSEHVLKKAHKYS, with 2.11. Next, LRLENNHCHIEWSEHVLKKAHKYS: 1.78; LRLENNHCHIEESEHSLKKAHKYS: 2.65. In the case of LRLENNHCHIEESEHPLKKAHKYS, the protein stability index amounted to 3.07. Then LRLENNHCHIEESEHFLKKAHKYS, with 3.08.

For LRLENNHCHIEESEHWLKKAHKYS, the protein stability index stood at 1.49. Take LRLENNHCHIEESEHMLKKAHKYS: the protein stability index turned out to be 1.97.

As to LRLENNHCHIEESEHHLKKAHKYS, the protein stability index turned out to be 2.02.

For the variant LRLENNHCHIEESEHGLKKAHKYS, the protein stability index was determined as 2.62. As to LRLENNHCHIEESEHNLKKAHKYS, the protein stability index came out at 2.38. Then LRLENNHCHIEESEHKLKKAHKYS, with 2.49; and LRLENNHCHIEESEHCLKKAHKYS, with 2.1; and LRLENNHCHIEESEHALKKAHKYS, with 3.01.

LRLENNHCHIEESEHRLKKAHKYS: the protein stability index was found to be 2.48. Then LRLENNHCHIEESEHQLKKAHKYS, with 1.39; and LRLENNHCHIEESEHELKKAHKYS, with 2.83; and LRLENNHCHIEESEHTLKKAHKYS, with 2.39.

On to LRLENNHCHIEESEHILKKAHKYS, for which the protein stability index was determined as 2.29. Then LRLENNHCHIEESEHYLKKAHKYS, with 1.9; and LRLENNHCHIEESEHDLKKAHKYS, with 3.13; and LRLENNHCHIEESEHLLKKAHKYS, with 2.47. Then LRLENNHCHIEESEFVLKKAHKYS, with 2.53; and LRLENNHCHIEESERVLKKAHKYS, with 2.86.

For the variant LRLENNHCHIEESEMVLKKAHKYS, the protein stability index was 3.02. Next, LRLENNHCHIEESESVLKKAHKYS: 2.64. Next, LRLENNHCHIEESENVLKKAHKYS: 3.07. Consider LRLENNHCHIEESEKVLKKAHKYS, for which the protein stability index was determined as 2.74. Then LRLENNHCHIEESEVVLKKAHKYS, with 1.5. Then LRLENNHCHIEESEGVLKKAHKYS, with 1.89; and LRLENNHCHIEESEQVLKKAHKYS, with 1.98. For the variant LRLENNHCHIEESEPVLKKAHKYS, the protein stability index was determined as 2.34. Next, LRLENNHCHIEESELVLKKAHKYS: 2.1; LRLENNHCHIEESEYVLKKAHKYS: 2.41; LRLENNHCHIEESEAVLKKAHKYS: 2.87. Then LRLENNHCHIEESEEVLKKAHKYS, with 2.6; and LRLENNHCHIEESEDVLKKAHKYS, with 2.56. Regarding LRLENNHCHIEESEWVLKKAHKYS, the protein stability index amounted to 2.09.

As to LRLENNHCHIEESETVLKKAHKYS, the protein stability index is 2.71.

On to LRLENNHCHIEESECVLKKAHKYS, for which the protein stability index is 2.18. Regarding LRLENNHCHIEESEIVLKKAHKYS, the protein stability index stood at 2.41.

On to LRLENNHCHIEESEHVGKKAHKYS, for which the protein stability index is 2.84. Consider LRLENNHCHIEESEHVFKKAHKYS, for which the protein stability index worked out at 2.79.

Consider LRLENNHCHIEESEHVNKKAHKYS, for which the protein stability index was 2.48.

Turning to LRLENNHCHIEESEHVHKKAHKYS, the protein stability index was 1.55. Next, LRLENNHCHIEESEHVQKKAHKYS: 2.4; LRLENNHCHIEESEHVMKKAHKYS: 1.56; LRLENNHCHIEESEHVVKKAHKYS: 2.4. Next, LRLENNHCHIEESEHVSKKAHKYS: 2.84; LRLENNHCHIEESEHVPKKAHKYS: 2.14; LRLENNHCHIEESEHVKKKAHKYS: 2.27. Next, LRLENNHCHIEESEHVWKKAHKYS: 1.72. LRLENNHCHIEESEHVRKKAHKYS: the protein stability index was found to be 2.8.
